Laboratory results as given in the nanobody polyreactivity screen of Harvey et al. (2022).

Test: yeast display, Sf9 membrane polyspecificity reagent, FACS + sequencing; frameworks hold sequencing errors
Method in brief: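 In a synthetic yeast display library (Saccharomyces cerevisiae BJ5465), nanobody expression was induced with galactose for 36–48 hours. FACS gates were set low and high (top ~1%) using anti-HA fluorescence for expression and streptavidin fluorescence for binding of the Sf9 membrane reagent. Each polyreactivity label is drawn from the gate of origin.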

| Sequence | polyreactivity (PSR sort gate) |
| --- | --- |
| QVQLVESGGGLVQAGGSLRLSCADSGFTFISNAKGWYRQAPGKERELVAAISSSGGRTYYADSVKGRFTISRDNAKNTVYLQMNSLKPEDTAVYYCNADRSLLYSRKIEYDYWGQGTQVTVSS | low polyreactivity |
| QVQLVESGGGLVQAGGSLRLSCADSGFTFYLYAMGWYRQAPGKERALVAAITGSGGSKYYADSVKGRFTISRYNAKNTVYLQMNSLKPEDTAVYYCAAVFKDSRYQYGFGYDYWGQGTQVTVSS | high polyreactivity |
| QVQLVESGGGLVQAGGSLRLSCADSGGTFKLYAMGWYSQAPAKESELVAAISRRGGSTYYADSVKGRFTISRDNAKNTVYLQMNSLKPDDTAVYYCAAPGPTQSTQRGGYWGQGTQVTVSS | high polyreactivity |
| QVQLVESGGGLVQAGGSLRLSCADSGIIFLEYAMGWYRQAPGKERELVAAISSDDGSSTYYADSVKGRFTISRDNAKNTVYLQMNSLKPEDTAVYYCAAYGGGGYYYDYEYWGQGTQVTVSS | high polyreactivity |
| QVQLVESGGGLVQAGGSLRLSCADSGIIFRYYAMGWYRQAPGKERELVADISRRGGSTYYADSVKGRFTISRDNAKNTVYLQMNSLKPEDTAVYYCAAKYRVYNYSPWGPYNYWGQVTQVTVSS | high polyreactivity |
| QVQLVESGGGLVQAGGSLRLSCADSGIIFYYNAMGWYRQAPGKEREFVAAIDDRGDSTYYADSVKGRFTISRDNAKNTVYLQMNSLKPEDTAVYYCAARDGYLYFDAMDYWGQGTLVTVSS | low polyreactivity |
| QVQLVESGGGLVQAGGSLRLSCADSGITFYIYAMGWYRQAPGKERELVATISWSDGRTYYADSVKGRFTISRDNAKNTVYLQMNRLKPEDTAVYYCAADWWYYQFDYEYWGQGTQVTVSS | low polyreactivity |
| QVQLVESGGGLVQAGGSLRLSCADSGITLVYDGMGWDIQAPGKERELVAAISWTGGSTFYADSVKGLFTISLDNAKKTVYLQMNSLKPEDTAVYYCAADRGYFYSRIQVDSDYWGQGTQVTVSS | low polyreactivity |
| QVQLVESGGGLVQAGGSLRLSCADSGLIFYYYAMGWYRHAPGKERELVAAISYNGGTTYYADSVKGRFTISRDNAKNTVYLQMNSLNPEDTAVYYCAAEQLVSGYDYWGQGTQVTVSS | low polyreactivity |
| QVQLVESGGGLVQAGGSLRLSCADSGNIFGTYAMGWSRQAPGKERELVANISNDDRTNYADSVKGRFTISRDNAKNTVYLQMNSLKPEDTAVYYCAVEYPSIAYRKSSKTFDYWGQGTQVTVSS | low polyreactivity |
| QVQLVESGGGLVQAGGSLRLSCADSGNIFYKNTMGWYRQAPGKERELVAAISVSGGGTYYADSVKGRFTISRDNAKNTVYLQMNSLKPEDTAVYYCAATWRQHPGSMGYWGLGTQVTVSS | high polyreactivity |
| QVQLVESGGGLVQAGGSLRLSCADSGRIFGLNAMGWYRQAPGKEREFVAAIRWRGGSTYYADSVKGRFTISRDNAKNTVYLQMNSLKPEDTAVYYCAADRNLGVSRYGYWGQGTQVTVSS | high polyreactivity |
| QVQLVESGGGLVQAGGSLRLSCADSGRIFNGYGMGWYRQAPGKERELVATISSSGDSTYYADSVKGRFTISRDNAKNTVYLQMNSLKPEDTAVYYCAKRARYKFGYWGQGTQVTVSS | high polyreactivity |
| QVQLVESGGGLVQAGGSLRLSCADSGRIFVHHDMGRYRQAPGKVRELVATITSGGSTYYADSVKGRFTISRDNAKNTVYLQMNSLKPEDTAVYYCAADSWDYDSRMDYWGQGTQVTVSS | low polyreactivity |
| QVQLVESGGGLVQAGGSLRLSCADSGRNYIGNAMGWYIHAPGKEPELVAAISSSGGNTYYADSVKGRFTISRDNAKNTVYLQMTSLNPEDNAVYYCAVEVRTLVTYGRSEYYWGQGTKVTVSS | high polyreactivity |
| QVQLVESGGGLVQAGGSLRLSCADSGRTFCKYVMRWYRQAPGKERELVAVISRPAGSTYYADSVKGRFTISRDNAKNTVYLQMNSLKPEDTAVYYCAKRPKNKPVLGDYDHWGQGTQVTVSS | low polyreactivity |

| Sequence | polyreactivity (PSR sort gate) |
| --- | --- |
| QVQLVESGGGLVQAGGSLRLSCADSGRTFSPYAMGWYRQAPGKDRELVAAITSGGRTNFADSVKGRFTISRDNAKNTVYLQMNSLKPEDTAVYYCAARSGRYRWTRFDYWGQGTQVTVSS | low polyreactivity |
| QVQLVESGGGLVQAGGSLRLSCADSGRTFSSYAMGWYRQAPGKERELVARISSSGGRTSYADSVKGRFTISRDNAKNTVYLQMNSLKPEDTAVYYCAKTYHWLYDYWGQGTQVTVSS | high polyreactivity |
| QVQLVESGGGLVQAGGSLRLSCADSGRTFYRYAMVWYRQSPGKERELVAAITTSGGSTYYADSVKGRFTISRDNAKNTVYLQMNSLKPEDTAVYYCAATYYGYHIRDDYWGQGTQVTVSS | low polyreactivity |
| QVQLVESGGGLVQAGGSLRLSCADSGRTFYYYAMGWYRQAPGKERELVASITYYADSVKGRFTISRDNAKNTVYLQMNSLKPVDTAVYYCAKDLYSNDLYRRYDYWGQGTQVTVSS | low polyreactivity |
| QVQLVESGGGLVQAGGSLRLSCADSGSIFRSYDMGRYSQAPGKERELVAGISYSGGSTYYADSVKRRFTISRDNAKNTVYLQMNSLKPEDTAVYYCNVDGGTYFFFVGAWGEYDYWGQGTQVTVSS | low polyreactivity |
| QVQLVESGGGLVQAGGSLRLSCADSGSIFYYNAMGWYRQAPGKERELVAAISVSGGSTYYADSVKGRFTISRDNAKNTVYLQMNSLKPEDTAVYYCAAEWLYYYWLPGRADYLEYDYWGQGTQVTVSS | low polyreactivity |
| QVQLVESGGGLVQAGGSLRLSCADSGSILGNAMVWYRQAPGKERELVAAITRGVSTYYADSVKGRFTISRDNAKNTVYLQMNSLKPEDTAVYYCYKTYVRGVHGVYLPITSYDYWGQGTQVTVSS | low polyreactivity |
| QVQLVESGGGLVQAGGSLRLSCADSGSILVAKGMGWYRQAPGKESELVAGITTRGGNTYYADSVKGRFTISRDNAKNTVYLQMNSLKPEDTAVYYCAADHLSYRRRYEYWGQGTQVTVSS | low polyreactivity |
| QVQLVESGGGLVQAGGSLRLSCADSGSTFEYNDMGWYRQEPGKERELVASSTYYADSVQGRFTISRDNAKNTVYLQMNSLKPEDTAVYFCAREQGVNRNHDYWGQGTLVTVSS | low polyreactivity |
| QVQLVESGGGLVQAGGSLRLSCADSGSTFFRYAMGWYRQAPGKERELVAAISKSGASTYYADSVKGRFTISRDNAKNTVYLQMNSLKPEDTAVYYCNADVKKSSAREWQYGYDYWGQGTQVTVSS | low polyreactivity |
| QVQLVESGGGLVQAGGSLRLSCADSGSTFLYYGMGWYRQAPGKERELVAGIDGTGSSTYYADSVKGRFTISRDNAKNTVYLQMNSLKPEDTAVYYCAKRYPRYRSRYYYWGQGTQVTVSS | low polyreactivity |
| QVQLVESGGGLVQAGGSLRLSCADSGSTFPGYTMGWYRQAPGKERELVAAIDGSAGDTYYADSVKGRVTISRDNAKNTVYLQMNSLKPEDTEVYYCAADGPYDYSPWLMYYWGQGTQVTVSS | low polyreactivity |
| QVQLVESGGGLVQAGGSLRLSCADSGSTFRFNAMGWYRQAPGKERDLVAAISQSGGSTRYADSVKGRFTISRDNAKNTVYLQMNSLKPEDTAVYYCAARRRWLPGYAWQVAYDSWGQGTQVTVSS | high polyreactivity |
| QVQLVESGGGLVQAGGSLRLSCADSGSTFTRYAIGWYRQAPGKEMEFVAAISWSGGITYYADSVKGRFTISRDNAKNTVYFQMKSLKPEDTAVYYCAAKRRYTRGGYGVDYWGQGTQVTVSS | high polyreactivity |
| QVQLVESGGGLVQAGGSLRLSCADSGSTFVLNAMGWYRQAPGKERELVAAISRCGASTYYADSVKGRFTISRDNAKNTVYLQMNSLKPEDTAVYYCNASGYGPGVVIYLVLYDYWGQGTQVTVSS | low polyreactivity |
